Assay results reported in patent US20250109203A1.
Numbering of substitutions follows the chain as printed.

B1: hu1D7v158 VHH-hIgG1 Fc-NNT (monomeric) (VHH)
VHH: EVQLLESGGGEVQPGGSLRLSCVASRGKISQYRMGWYRQAPGKQRELVAHISNTGDAAEYVAPVKGRFTISRDNAKNALYLQMNSLRAEDTAVYKCNTVEDILAWGQGTLVTVEP
B2: hu1D7v158-1 VHH-hIgG1 Fc-NNT (monomeric) (VHH)
VHH: B1 VHH with Y37V
B3: 1D7v112 VHH-hIgG1 Fc-NNT (monomeric) (VHH)
VHH: B1 VHH with Q44E, A62D, P63V, G66D, N74S, A75T, N84S, T98S, E114R
B4: hu1D7v102 VHH-hIgG1 Fc-NNT (monomeric) (VHH)
VHH: B1 VHH with Q44E, R45L, L47W, A62D, P63S, G66D, N74S, A75T, N84S, E114R
B5: 1D7v113 VHH-hIgG1 Fc-NNT (monomeric) (VHH)
VHH: B1 VHH with Q44E, A62D, P63L, G66D, N74S, A75T, N84S, T98S, E114R
B6: hu1D7v158-10 VHH-hIgG1 Fc-NNT (monomeric) (VHH)
VHH: B1 VHH with K95Y
B7: 1D7v124 VHH-hIgG1 Fc-NNT (monomeric) (VHH)
VHH: B1 VHH with Q44E, A62D, P63G, G66D, N74S, A75T, N84S, T98S, E114R
B8: hu1D7v85 VHH-hIgG1 Fc-NNT (monomeric) (VHH)
VHH: B1 VHH with Q44E, A62S, P63G, G66D, N74S, A75T, N84S, T98S, E114R
B9: hu1D7v158-2 VHH-hIgG1 Fc-NNT (monomeric) (VHH)
VHH: B1 VHH with A49S
B10: hu1D7v158-8 VHH-hIgG1 Fc-NNT (monomeric) (VHH)
VHH: B1 VHH with V61A, A62E, P63S
B11: hu1D7v158-4 VHH-hIgG1 Fc-NNT (monomeric) (VHH)
VHH: B1 VHH with V61A
B12: 1D7v139 VHH-hIgG1 Fc-NNT (monomeric) (VHH)
VHH: B1 VHH with Q44E, A62L, P63S, G66D, N74S, A75T, N84S, T98S, E114R
B13: 1D7v125 VHH-hIgG1 Fc-NNT (monomeric) (VHH)
VHH: B1 VHH with Q44E, A62E, P63G, G66D, N74S, A75T, N84S, T98S, E114R
B14: hu1D7v158-9 VHH-hIgG1 Fc-NNT (monomeric) (VHH)
VHH: B1 VHH with Q44E, L47F
B15: hu1D7v158-5 VHH-hIgG1 Fc-NNT (monomeric) (VHH)
VHH: B1 VHH with A62E
B16: hu1D7v98 VHH-hIgG1 Fc-NNT (monomeric) (VHH)
VHH: B1 VHH with Q44E, A62L, P63S, G66D, N74S, A75T, N84S, T98S, E114R
B17: hu1D7v86 VHH-hIgG1 Fc-NNT (monomeric) (VHH)
VHH: B1 VHH with Q44E, A62G, P63G, G66D, N74S, A75T, N84S, T98S, E114R
B18: hu1D7v158-3 VHH-hIgG1 Fc-NNT (monomeric) (VHH)
VHH: B1 VHH with H50A
B19: hu1D7v158-7 VHH-hIgG1 Fc-NNT (monomeric) (VHH)
VHH: B1 VHH with A78T
B20: hu1D7v101 VHH-hIgG1 Fc-NNT (monomeric) (VHH)
VHH: B1 VHH with Q44E, A62D, P63S, G66D, N74S, A75T, N84S, N97A, T98A, E114R
B21: hu1D7v99 VHH-hIgG1 Fc-NNT (monomeric) (VHH)
VHH: B1 VHH with Q44E, A62S, P63S, G66D, N74S, A75T, N84S, T98S, E114R
B22: hu1D7v158-6 VHH-hIgG1 Fc-NNT (monomeric) (VHH)
VHH: B1 VHH with P63S
B23: hu1D7v100 VHH-hIgG1 Fc-NNT (monomeric) (VHH)
VHH: B1 VHH with Q44E, A62D, P63S, G66D, N74S, A75T, N84S, K95Y, T98S, E114R
B24: hu1D7v3 VHH-hIgG1 Fc-NNT (monomeric) (VHH)
VHH: EVQLLESGGGEVQPGGSLRLSCVASGGKISQYRMGWYRQAPGKGLEWVAHISNTGDAAEYVDSVKGRFTISRDSTKNAVYLQMSSLRAEDTAVYKCNSVEDILAWGQGTLVTVKP
B25: hu1D7v10 VHH-hIgG1 Fc-NNT (monomeric) (VHH)
VHH: B24 VHH with G26R, A49S
B26: hu1D7v5 VHH-hIgG1 Fc-NNT (monomeric) (VHH)
VHH: B24 VHH with G26R, K28T
B27: 1D7v158×HSA×IL-2_X (h1D7v158 VHH - anti-HSA VHH - IL-2_X) (protein, part only; not given: anti-albumin VHH and linkers, part only)
chain, part: EVQLLESGGGEVQPGGSLRLSCVASRGKISQYRMGWYRQAPGKQRELVAHISNTGDAAEYVAPVKGRFTISRDNAKNALYLQMNSLRAEDTAVYKCNTVEDILAWGQGTLVTVEPAPASSSTKKTQLQLEALLLDLQMILNGINNYKNPKLTRMLTFKFYMPKKATELKHLQCLERELKRLEEVLNLAQSKNFHLRPRYLISNINVIVLELKGSETTFMCEYADETATIVEFLNRWITFSQSIISTLT
B28: 1D7×HSA×IL-2_X (anti-γδTCR-1D7 VHH - anti-HSA VHH - IL-2_X) (protein, part only; not given: anti-albumin VHH and linkers, part only)
chain, part: QVQLVQSGGGLVQPGGSLRLSCVASRGKISQYRMGWYRQAPGKQRELVAHISNTGDAAEYVDSVKGRFTISRDSTKNAVYLQMNSLKPEDTAVYKCNSVEDILAWGQGTQVTVKPAPASSSTKKTQLQLEALLLDLQMILNGINNYKNPKLTRMLTFKFYMPKKATELKHLQCLERELKRLEEVLNLAQSKNFHLRPRYLISNINVIVLELKGSETTFMCEYADETATIVEFLNRWITFSQSIISTLT
B29: bivalent 1D7 VHH-human IgG1 Fc xELL fusion (VHH)
VHH: QVQLVQSGGGLVQPGGSLRLSCVASRGKISQYRMGWYRQAPGKQRELVAHISNTGDAAEYVDSVKGRFTISRDSTKNAVYLQMNSLKPEDTAVYKCNSVEDILAWGQGTQVTVKP

Each binder was assayed against human γδ TCR (Vγ9Vδ2) on human Vδ2+ γδ T cells (human) (UniProt A0JD36) (assay: flow cytometry on expanded human Vδ2+ γδ T cells, nonlinear fit; from data in FIG. 6K).

Binder	Kd [nM]
B1	2.96

What follows are binders tested against human γδ TCR (Vγ9Vδ2) on human Vδ2+ γδ T cells (human) (UniProt A0JD36) (assay: flow cytometry on expanded human Vδ2+ γδ T cells, nonlinear fit).

Binder	Kd [nM]
B2	205
B3	226
B4	18
B5	192
B6	4.97
B7	72.2
B8	168
B9	3.28
B10	2.93
B11	3.13
B12	341
B13	59
B14	20
B15	2.82
B16	114
B17	126
B18	28
B19	3.47
B20	270
B21	116
B22	2.82
B23	61.9
B24	51.1
B25	60.9
B26	108

What follows are binders tested against human γδ TCR (Vγ9Vδ2) on human Vδ2+ γδ T cells (human) (UniProt A0JD36) (assay: flow cytometry on expanded human Vδ2+ γδ T cells, nonlinear fit; from data in FIG. 6J).

Binder	Kd [nM]
B1	6.54

The binders below were run against human γδ TCR (Vγ9Vδ2) on human Vδ2+ γδ T cells (human) (UniProt A0JD36) (assay: flow cytometry, monomeric VHH-hIgG1 Fc fusion on expanded human Vδ2+ γδ T cells, anti-human Fc A647, MFI).

Binder	EC50 (read off the curve) [nM]
B1	3

Molecular target: human γδ TCR (Vγ9Vδ2) on human Vδ2+ γδ T cells (human) (UniProt A0JD36)
Assay: as above
Remark: another data set of the same source

Binder	EC50 (read off the curve) [nM]
B1	6
B8	70
B17	60
B21	60
B24	20
B26	30

These binders were tested against human γδ TCR (Vγ9Vδ2) on human Vδ2+ γδ T cells (human) (UniProt A0JD36) (assay: flow cytometry on zoledronate-expanded human γδ T cells gated Vδ2+, anti-VHH Alexa647, MdFI).

Binder	EC50 (read off the curve) [nM]
B27	4
B28	5

What follows are binders tested against cynomolgus monkey γδ TCR on cynomolgus Vγ9+ γδ T cells (cynomolgus monkey) (assay: flow cytometry on expanded cynomolgus γδ T cells gated Vγ9+, anti-human Fcγ A647, MdFI).

Binder	EC50 (read off the curve) [nM]
B29	0.3
